What was measured:
Caco-2 Host Cells = test: Host cell toxicity assay by LDH release (CYTOTOX 96); assay type: cell-based, human; details: control medium alone for 2 h, 0-5% non toxic, 5-10% mild toxicity
Procedure: Host cell toxicity assay was performed by measuring the release of lactate dehydrogenase (LDH) in the medium using a CYTOTOX 96 Non-Radioactive Cytotoxicity Assay kit (Promega, Madison, Wis.). Toxicity was therefore classified as non toxic 0-5% LDH release and mild toxicity 5-10% LDH release (ref).

C. parvum sporozoites = test: Effect of PLA2 on sporozoite infectivity for Caco-2 monolayers (immunofluorescence assay); assay type: cell-based, Cryptosporidium parvum
Procedure: (§1) This experiment describes the effects of PLA2 on sporozoite infectivity. Briefly, sporozoites were incubated in an isotonic saline solution (37° C., 30 min) with a range of concentrations of PLA2 isolated from honey bee venom (Sigma-Aldrich Corp., St. Louis, Mo., 1.5 U/μg protein). Control sporozoites were identically incubated in buffer containing concentration-matched BSA but no PLA2. Sporozoites were then washed in medium and inoculated onto replicate Caco-2 human intestinal epithelial cell monolayers. 24 h later, infection was quantified in test and control monolayers by immunofluorescence assay as described herein and the mean percent reduction of infection calculated. […] Percent viability of Caco-2 cells following exposure to PLA2-treated sporozoites (86%) was similar to that of uninoculated control cells (91 %) at 24 hrs, as determined by trypan blue dye exclusion. […] Through fusion of PLA2 to a monoclonal antibody with a high affinity for sporozoites, such as 1E10 or 4H9, lethal concentrations of biocide are deliverable to the sporozoite surface with relatively low amounts of biocide being used.

Caco-2 cells = test: Caco-2 cell viability by trypan blue dye exclusion; assay type: cell-based, human; details: 24 hrs, uninoculated control cells 91 %
Procedure: as §1

Substance	% LDH release (Caco-2 Host Cells; 10 μg/ml) [%]	PLA2 concentration effective in neutralization (C. parvum sporozoites; preliminary data) [units/ml]	PLA2 concentration achieving highly significant reduction of sporozoite infectivity (C. parvum sporozoites; sporozoites incubated 37° C., 30 min, Caco-2 monolayers, 24 h, P<0.0005) [U/ml]	Percent viability of Caco-2 cells following exposure to PLA2-treated sporozoites (Caco-2 cells) [%]	% LDH release (Caco-2 Host Cells; 100 μg/ml) [%]
b-defensin 1 [βD1]	0.8 ± 1.0				
bee-venom phospholipase A2 [PLA2]		< 0.02	0.014	86	
cathelicidin	1.6 ± 0.3				5.6 ± 0.9
